B1: library; numbered along this chain (parent)
chain: MAAAGGARLLRAASAVLGGPAGRWLHHAGSRAGSSGLLRNRGPGGSAEASRSLSVSARARSSSEDKITVHFINRDGETLTTKGKVGDSLLDVVVENNLDIDGFGACEGTLACSTCHLIFEDHIYEKLDAITDEENDMLDLAYGLTDRSRLGCQICLTKSMDNMTVRVPETVADARQSIDVGKTS

Variants of B1 are the subject of this data set. Description: scaled log2 fold change in cell abundance, elesclomol vs control (0 = silent mean, 1 = nonsense mean) (scaled log2 ratio); higher = higher viability under elesclomol (loss of FDX1 cuproptosis function). The note with it: glucose 10 mM.
The mark [1] stands for this setting: with ABC1 FDX1 KO, elesclomol 5 nM, 14 days.
Setting [2] is: with HEK293T FDX1 KO, elesclomol 40 nM, 11 days.
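Further: variant abundance is its share of total variant reads in each endpoint sample, from next-generation sequencing of the integrated ORF PCR-amplified out of genomic DNA.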

On to MAAAGGARLLRAASAVLGGPAGRWLHHAGSRAGSSGLLRNRGPGGSAEASRSLSVSARARSSSEDKITVHFINRDGETLTTKGKVGDSLLDVVVENNLDIDGFGACEGTLACSTCHLIFEDHIYEKLDAITDEENDMLDLAYGLTDRSRLGCQICLTKSMDNMTVRVPETVADARQSIMVGKTS, for which the “scaled log2 fold change” value is 0.0418 under setting [1] and -0.494 under setting [2].
For the variant MAAAGGARLLRAASAVLGGPAGRWLHHAGSRAGSSGLLRNRGPGGSAEASRSLSVSARARSSSEDKITVHFINRDGETLTTKGKVGDSLLDVVVENNLDIDGFGACEGTLACSTCHLIFEDHIYEKLDAITDEENDMLDLAYGLTDRSRLGCQICLTKSMDNMTVRVPETVADARQSIIVGKTS, the “scaled log2 fold change” value reads like this: under setting [1], -0.885; under setting [2], 0.926.
As to MAAAGGARLLRAASAVLGGPAGRWLHHAGSRAGSSGLLRNRGPGGSAEASRSLSVSARARSSSEDKITVHFINRDGETLTTKGKVGDSLLDVVVENNLDIDGFGACEGTLACSTCHLIFEDHIYEKLDAITDEENDMLDLAYGLTDRSRLGCQICLTKSMDNMTVRVPETVADARQSIQVGKTS, the “scaled log2 fold change” value reads like this: under setting [1], 0.442; under setting [2], -0.984.
As for MAAAGGARLLRAASAVLGGPAGRWLHHAGSRAGSSGLLRNRGPGGSAEASRSLSVSARARSSSEDKITVHFINRDGETLTTKGKVGDSLLDVVVENNLDIDGFGACEGTLACSTCHLIFEDHIYEKLDAITDEENDMLDLAYGLTDRSRLGCQICLTKSMDNMTVRVPETVADARQSIPVGKTS, the “scaled log2 fold change” value reads like this: under setting [1], -0.26; under setting [2], 0.0267.
For MAAAGGARLLRAASAVLGGPAGRWLHHAGSRAGSSGLLRNRGPGGSAEASRSLSVSARARSSSEDKITVHFINRDGETLTTKGKVGDSLLDVVVENNLDIDGFGACEGTLACSTCHLIFEDHIYEKLDAITDEENDMLDLAYGLTDRSRLGCQICLTKSMDNMTVRVPETVADARQSILVGKTS, the “scaled log2 fold change” value reads like this: under setting [1], 0.0184; under setting [2], 1.12.
For the variant MAAAGGARLLRAASAVLGGPAGRWLHHAGSRAGSSGLLRNRGPGGSAEASRSLSVSARARSSSEDKITVHFINRDGETLTTKGKVGDSLLDVVVENNLDIDGFGACEGTLACSTCHLIFEDHIYEKLDAITDEENDMLDLAYGLTDRSRLGCQICLTKSMDNMTVRVPETVADARQSIHVGKTS, the “scaled log2 fold change” value under setting [1] was 0.224.
Turning to MAAAGGARLLRAASAVLGGPAGRWLHHAGSRAGSSGLLRNRGPGGSAEASRSLSVSARARSSSEDKITVHFINRDGETLTTKGKVGDSLLDVVVENNLDIDGFGACEGTLACSTCHLIFEDHIYEKLDAITDEENDMLDLAYGLTDRSRLGCQICLTKSMDNMTVRVPETVADARQSIRVGKTS, the “scaled log2 fold change” value under setting [1] was determined as 0.498 and the “scaled log2 fold change” value under setting [2] was -0.221.
In the case of MAAAGGARLLRAASAVLGGPAGRWLHHAGSRAGSSGLLRNRGPGGSAEASRSLSVSARARSSSEDKITVHFINRDGETLTTKGKVGDSLLDVVVENNLDIDGFGACEGTLACSTCHLIFEDHIYEKLDAITDEENDMLDLAYGLTDRSRLGCQICLTKSMDNMTVRVPETVADARQSINVGKTS, the “scaled log2 fold change” value under setting [1] amounted to 0.063.
Turning to MAAAGGARLLRAASAVLGGPAGRWLHHAGSRAGSSGLLRNRGPGGSAEASRSLSVSARARSSSEDKITVHFINRDGETLTTKGKVGDSLLDVVVENNLDIDGFGACEGTLACSTCHLIFEDHIYEKLDAITDEENDMLDLAYGLTDRSRLGCQICLTKSMDNMTVRVPETVADARQSIKVGKTS, the “scaled log2 fold change” value by setting is: under setting [1], 0.53; under setting [2], -0.385.

(Values after the supplement of paper PMC12855868.)
